A short description of the data set: protease stability score; higher = more stable; yeast display proteolysis, trypsin and chymotrypsin.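 Further: log10 excess protease needed over predicted unfolded state with 0 meaning unfolded.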
For “DEEKEREMFKEFLNAFKSGDPDKLRKRMRQNVTLVYGDKSLHGRERAAKWFSELVKRVDHIEIESVKTDENHFDADVHLNVNGQNVIVHIRAKVENGRIVKVQYEYRDESQRRKLEK”, the protease stability score was 1.18.
On to “DEEDVRRVAKQAKEYVQKGNKEKLMDLGKEGVDYRVLDHKAKGPEAIKTMQDYLERKGARVEVKKLEVKGDQVRTEVHYKQGDTTATAEVHATVKGGKIDKVKVDLSDRAKEILKHG”, for which the protease stability score was -0.141.
The same measure for “DEEELETMRRILKENDWETIAHNADKDVKMTVGDKTIHGRENVRHWVKKWQKNVDHIDVESIDVQGDRIDMVARNVVNGKTMKLVFHINVHNGHVQEIELRARNEKDEELLRKAEG”: 1.3; for “DDKDAKRLLTLWHQIEEGNPEEVQKMMDENVHVSIGDKEVHGREEDARQRKEEVDSMRVSLKIDHYSDNNGRIVVDATQENETNGKPSTKRFVIEARMDNGTLKRLQIEDDK”: 0.097.
For “DEQKDEEIRRVIENNDWTEVKELADENVKASVGDKRYHGREEMEKFWKIVHDRADHIEYQDIHVHNGQFNAQVVINVNGQELDVQITMRAENGKITNMSIHATSEEVKERIKEMFS” the value was 0.73; for “DDDDQLRSMIKSYNDNFQRGDFVRLLKMAPPDVKIRIGEDEISGREKANEFATRLEEEVDQVEAEIKSVTAHNGKASADILVEVNHNGETKHFTIEVHFDLQNGEVHLTEVVYK”, 0.79.
Sequence “DEEKHAESAIHHIIKVFKENNPDQFRRNADPNVKVNVGEHEVDGRDDLAKYMVDEANRVDHASYEIVHLDVRGDKARARVRVIVKFDGQERKYEYVFVFVEQNGEVVITKVQHQ” showed a protease stability score of 1.1.
“DESLVEILKKLAKAFNENDPDHLVKLFDEDARLDYGDTSVHGREQIKRLMEDWKRRMTVKIRVNHIDVKNGRAQMKADLTIRHNGKPDTNKVEVELHAHNGRNKEVVFERTK” yielded a protease stability score of 0.279.
Consider “DEDKRKLVEDLIEAEERGDNERIKELADKDAEYIYGDKTVEGREEHAKEVKKKHDQQRVKITSMRINAHGDKIQVSIEYTVEDNGQPRRARVHIKFVIHNGRFQSMHIQDHR”, for which the protease stability score was -0.253.
The sequence “DEKHAHKIVRAWSQGDPDQLAELADPNVRLVVGDKTYDGRESFVKWLKDLRKRIDHVRVDSVKINGNKIEIDMRFQVDGVHLVVTVDIEFKNGKIKDVRIQYRDEEQLKDIKKVVR” returned a protease stability score of 1.2.
Take “DQHLEDVARQMQEVEKHNDPEEVSKQFDPNAHARYGDKEVHGHHQFKEQAKRRQTKAQFKVDKYSVSVDNGRVSMSRQYVNDHNGKPRTQTDTAHMEVHDGRITDVKYQSTS”: the protease stability score was -0.139.
Sequence “EDEEAEEAIRIWQRNDPDQLNRMVDKDVSIHYGDKSYHGRHEVKKIWENYVKQVDRISFRHITRTGEHVSFEVEAVVNGKHVEFTASMEMKNGRAKDITFKATNEEDDKELQKNLE” came in with a protease stability score of 0.28.
The same measure for “DESAVNNLVRLAKAWLRGDPKKIEHLVDKDAKAQIGDKTLHGREDLKDHADELRKDMTVDVKSVTNNNQNGQAVVDVKFEADRNGRPETHTLDAKATAHNGDIVDVKIHQDG”: -0.304; for “DEERKKQAEHFMRVYQQGNEEELNKLMDPNVKANVGDKEWQGREKMAKDTREKLEHSKLQLHSVSVDAQGNNIRIDVSFVVNHNGEPRRNHQTIIIHIDNGRITRLEVKDTS”: 0.004.
For “DEDHMRTLIQRFIEAVQKGDEEQIKRLADPNARMRVGEREIHGREEIAKEIKDIRDQVDHINIRTWSFHNGEAHLEVEYNHNGQHRTMKLRIVVRNGKLQELEWRKG” the value was 2.39.
For “EQEVVHLAHRFIEAVQHNSTEDANKNVDPNAKFRVGDHVVNGREEVNEKVRKDHEKIRLQIRSVTLEDQGDKVEIRMDVEFDVNGKPLHHNLKMTVEAHNGKIVQLDNQMDPTELKELKQ” the value was -0.152.
“DEEADKRITEQLKQEQEGDKDKVKEQIDPNARIKVGDKTIHGMDEYVRMVHRTRREQRRRIRVVSVEVRGNTAKVDADRHIDVNGRPVRYRIEFHVEFHNGKVTDIHVHTDQEQKKKQHG” came in with a protease stability score of 0.655.
The same measure for “DREMLKDVKRLLEVINKGNEDEMRKMVDPNAKFVIGDKEITGREEFAKQMKRHKDEIRIDIKVKHLTAKGNRATVRATATRDHNGQPQSFKVTMRVTFSNGKVKKVHYDYTK”: 0.065.
The same measure for “DEELEHILKDILKAQKHNDEKRLEELFDPNVHFEVGDKRYNGMSRFAHELAQTQKEIKWRVQWQTWDVQGNKATMQAEAVFEVNGRPFRYTYQARVQVKNGKVKRHEIHVDPQQLRDQNS”: -0.087; for “DEKKYEELLREVQKYLYQGNYEEAQKVLAPNVVFEVGDYKMNGLEQVMKYYKKVKDRGAEIHVEEMEVTGHKARVVYKLHVGGRTIEVTAEVKVEDERVKKARVEVSEEYVKHVQHG”: 1.61; for “DEEELKDVLKKFSKNDEDFFKDLADKDARAVYGDKEVHGREEMSDLWRILKEQVDHMHINHMKLQGDRIVVDFTMTINGQEYVNVQELKFQNGKLQEVVVKVTDEEQMKRLLKIEK”: 0.298.
For “DEDHNRRLAHTIVEILRTGDPDKMNEQLDPNARAHYGDHEIHGRENVAKMVKELHDRVDHFTVKTYDADGDHITIELVMKVNGRNVEMTVVVRVRNGRLVDLRYRYTSEEQEKTEKE” the value was 2.12.
In the case of “DEKQNNHFKDLMETNDWTQIAKQADENAKAKYGDKTVHGRENITHNNRRIKNRVDEMRIRNLTLEPNRIVQNFVVRVNGQDAQAVMTLEFENGRVKSVKLQARDTRVEEVLRKMMQ”, the protease stability score came to 0.465.
For the sequence “DEENRHQINEMWKQIQTNNPDEVMKQLDKDVQVVVGDKQIRGREEFAKHVEQLLREMDVEYHSIKVKVHNGEAHVKVRHTVDVNGKPREDTLDVQLQMKNGHVKHFELRIDEDKLEKLKR”, the protease stability score was -0.169.
The same measure for “DEKDEAVKLLEHLMEALRRGDEDHARSLADPNVRADIGDRDYSGRNKVAQEWIRRATQADHLELRIRDVRVDGNEVTLEAELSMKVNGETHSDTVHFQFEKHNGRVVLVHVQFK”: 1.56.
“DDEKVQKAAHNLIQAIKSGDEDRMRKLMDPNVRVVVGDKEVSGSDDAARFLRELRERVDHVEVKRVEAHNGRIKIDAVNRHNGHDHRFVLEAEVHNGTVKQIRIKEQ” had a protease stability score of 1.43.
“DKEKEADQQVRTADEIYQTGNPEEAKKLADPNVDVRIGDKEYHGDRELAQIIVEKRERVDSLVFHVERINVHPGRFQLNVVLTLKHNGKHETKKEEFVMTKRNGQLRVVHMRDQ” displayed a protease stability score of 0.056.
For “DDDNKRVVERFLRAQQEGDPDTAKENADENAHFHYGDRRITGRESYAEWMERRKKESRVEFRIDQMNVSGDRIDVHFQMQVRHNGRPERFEARMVIKITNGHIVQVRVEKKE” the value was 0.207; for “DEEDMKKVVKQLLEAAQNGNTEKIVQLVKKDVEFKLGDTEYRGQEDVRKVVKKLRDIGAEFHVKEYEATGGEAKVKTVWHIGDNEAHVEVKYTVEDDKVDRVEVRWSEKAQKQIKKG”, 0.801.
Regarding “DEHEAKKMSEMFKNLATGNPDTAKRQFDKDASVQIGDKVVHGREHLSRTLKRRRDQIRVVVEDVKVTVNGDKAEIQVIFSWEHNGEPRRSVYFATVHWHNGNVKKVTVTEQS”, the protease stability score was -0.121.
The same measure for “EEELRNVYRDLLEAEERGNPDDIKRLVDPNARLQIGDKEIHGREHLMRFVEEVRKEIRFEIDRLDVTATGETAKVDARVKQNHNGQPESWHYTVQVKYHNGRIVNLRMRRTS”: 1.31.
Consider “DDEVQEVAEQWMRAFNTGDPDTFKDLLDKDVRVQYGDKRLSGKKTLANELQHQKEHQRFKVQHVDIKVTGNKAEINFTLVMDVNGKPVHYTVRANLDVHNGKVKEARFTMDPNTLSKMKR”, for which the protease stability score is -0.24.
Sequence “DEVTRAEELLHEIQEAFRTGDEDQARRLADENVQIHVGDKFVRGRRDYVKRLKDEVDRVDHMEVHIKSVDVHGDKATMDYRVRVQFDGQSKERDVVMYAKISNGQLKVTSLTEK” had a protease stability score of 0.012.
For “DDTAVRIWEKLLSALRTGNEQEVEKNLDPNATVVIGDKRVSGREEVKRMVRRLLTTMRLNVKSVENRDQPGHADVQYTVQFNHNGRPREDRWVVIVRVKNGKIQTVVMKENP” the value was 1.12.
The same measure for “DHEDKERASQAIEAWNTGDPREFEKQFDPNARVHVGDRHIHGREQFEDEMKRHKDESRYEISLRNVTVDNGRIKLDVVLSVDENGRPETQHLKIDLELHNGRVVSMQFNHKK”: -0.209; for “DKEKEAKKAIDKMITAIQHNDEDRAREMADPNVRIKYGDKQYHGRETMEDWIRTLRNSYDHLDIKLTDMKTDGDKIHIIIQYEADHNGQRTRDRVDLTMRRDNGRVKLVSAKEQ”: 0.232.
The same measure for “DREAKNVFEKLTKAFETGNEDDMRKLLDEDVRFNIGDREVHGREQAVEDLKRKRTQMRVDIHHVDQQNEPNRLSVNVRMVVEHNGRPRDVQRHAVFDVHNGRIKSVKEKDRQ”: -0.238; for “DTESAQTFVDVLEEGDFDTLVNLMDKNARLQVGDTTFNGRENARHFFELMKDKVDHLKIDHYEIHGNHVNIDMKLNVNGKTVDVVVYVKFHNGRIQHLRIEARDPEDMRTFKENMR”: 1.35.
In the case of “DEREAASVAMRAAQAFVTGDEKTFVDNVDPNARVTVGDKHLHGREHIQDHIRKLKTRVDHHEIHDYKVHGNKATMDVRVVFDGRTRDKKIFAVAHNGRVQEMRVEDG”, the protease stability score was -0.299.
For the sequence “DEEHVDQLLRKIFEILRNGDEKKLQDNFDPNVKATYGDRDITGMHSIAKTLAELFQRADHVNLRSMEVNGDKMRMQVSVQVDGRRATLEVNMRQHNGKVKELNLDPRRIKQFES”, the protease stability score was -0.169.
On to “DEEVLKVAHDWFENVTQGDPDKLSRLMDKDARVNVGEKQYHGREEIMRQHERENKEAEVTFQKMDFKVTGDRAVVNVRVDVNINGQPFEVTFIFKLEVHNGRIKQIEMDFSEEQWDKLRR”, for which the protease stability score was -0.211.
The same measure for “DESLHRWYERLQEALEHGDEDRLRKNADKDVQVDVGDKRVHGSEHYAHELVRESREMDFHIHRMEVSVTGNRITVDYVYDREHNGTPQSKRVQERYQAHNGKLKRASVQETD”: -0.093; for “DEELAKKVLEKWVKVVDKGDDQAVKKLYKPNGTWINGDEETQGAEKVVKMMQKAQKKGDQFQVRKAKVEGNHVEFHYDLRIGDQTATFTVKVQVQGGRVEEVKVEVDKKAKEIITKG”: 0.06; for “DESAIQHWRKMLEAVETGDEKKIQKQADPNAKFRVGDKVIHGREKYAKQKVQEARQIRVEIDIKDWENRPGRVNLDADARYEINGQPVTFRLEVEMRMHNGHFVSVDVQFDEEKWEKLHK”: 0.037.
For “DEESVQTFAQQRRQGNFEELIKMMDPNVEMKVGDKTWTGREQVQTALEHLKERVDRIQIDHMDVKGNHVDIDYVLNFNGRNVKATQKIEMKNGSAKRIQIDATNEENEKELKKAFS” the value was -0.163.
For “DEEEDNELAKRAAKAMSTNDEDQVENLVDKDVRLEVGDKTYTGDEQVRSAIQEFRRRADHVKVNKLKVEDGQANLRFTVNWNGVELDMVIHVKATNGKIKTVTIKVRDPEQERRFKS” the value was 0.024; for “DHELEELAKRFLEAVLTGDEDQLRRNMDPNVKVDVGDKTVKGREEAAREIHETVHRSRIHVNHVDFRLNNGRETMRMDVVVDHNGRPQKDTWKMNQDVQGDKVKNINFRTDG”, -0.353.

Values taken from the NTF2 design screens of Basanta et al. (2020).
